In PMC3553496 (Science signaling, 2011):
Blank lines part the entries; values can stand above or below the binder they belong to.

How the values were obtained:
Experiment in all cases: peptide or protein array
[1] = target: T1, DAZ-associated protein 1 peptide (18-mer) (human)
T1 peptide: QFSFGYGPPPPPPDQFAP

[2] = target: T2, Diaphanous homolog 1 peptide (18-mer) (human)
T2 peptide: LPGGTAIPPPPPLPGSAR

[3] = target: T3, Splicing factor 1 peptide (18-mer) (human)
T3 peptide: GMPPFGMPPAPPPPPPQN

[4] = target: T4, U1 small nuclear ribonucleoprotein C peptide (18-mer) (human)
T4 peptide: GAMIPPPPSLPGPPRPGM

[5] = target: T5, Serine-threonine protein kinase WNK1 peptide (18-mer) (human)
T5 peptide: NATALELPGLPLSLPQPS

[6] = target: T6, Tight junction protein ZO-2 peptide (18-mer) (human)
T6 peptide: FGRSILKPSTPIPPQEGE

[7] = target: T7, UPF0027 protein C22orf28 peptide (18-mer) (human)
T7 peptide: GSTRAFPPHHPLIAVDYQ

[8] = target: T8, Coiled-coil domain–containing protein KIAA1826 peptide (18-mer) (human)
T8 peptide: SRRENELPDFPHIDEFFT

[9] = target: T9, SET and MYND domain–containing protein 3 peptide (18-mer) (human)
T9 peptide: NGLRAVTPLRPGELLFRS

[10] = target: T10, EGFR kinase substrate 8 peptide (18-mer) (human)
T10 peptide: PKEQFIPPYVPRFRNGWE

[11] = target: T11, Tyrosine protein kinase ABL1 peptide (18-mer) (human)
T11 peptide: KKKKKTAPTPPKRSSSFR

[12] = target: T12, Statherin peptide (18-mer) (human)
T12 peptide: RFGYGYGPYQPVPEQPLY

[13] = target: T13, Proline-rich protein 4 peptide (18-mer) (human)
T13 peptide: GHRQLSLPRFPSVSLQEA

[14] = target: T14, Adenylyl cyclase–associated protein 1 peptide (18-mer) (human)
T14 peptide: PPPPPPCPPPPPVSTISC

[15] = target: T15, Ankyrin repeat and SAM domain–containing protein 1A peptide (18-mer) (human)
T15 peptide: DRPYEEPPQKPPRFSQLR

[16] = target: T16, NEDD9-interacting protein with calponin homology and LIM domains peptide (18-mer) (human)
T16 peptide: DPEMEPPPKPPRSCSALA

[17] = target: T17, Rab11 family interacting protein 5 peptide (18-mer) (human)
T17 peptide: RIMETSPTLLQIPPGPPK

[18] = target: T18, Serine-threonine protein kinase N3 peptide (18-mer) (human)
T18 peptide: EMTPPPKPPRLYLPQEPT

[19] = target: T19, Focal adhesion kinase 1 peptide (18-mer) (human)
T19 peptide: DPAAPPKKPPRPGAPGHL

[20] = target: T20, Dishevelled, dsh homolog 3 peptide (18-mer) (human)
T20 peptide: MAFPRPRPWGPQEPLRAA

[21] = target: T21, Gephyrin peptide (18-mer) (human)
T21 peptide: FGRVFMKPGLPTTFATLD

[22] = target: T22, Glutamate–cysteine ligase catalytic peptide (18-mer) (human)
T22 peptide: WQTMRFKPPPPNSDIGWR

[23] = target: T23, YLP motif–containing protein 1 peptide (18-mer) (human)
T23 peptide: HHLPPPPLPPPPVMPGGG

relative binding strength (% of the strongest interaction of this SH3 domain) [1]: 18% | relative binding strength (% of the strongest interaction of this SH3 domain) [2]: 100% | relative binding strength (% of the strongest interaction of this SH3 domain) [3]: 7%
B1: GST-tagged ARHGAP4 SH3 domain (domain or fragment)
chain: not shown

relative binding strength (% of the strongest interaction of this SH3 domain) [4]: 100% | relative binding strength (% of the strongest interaction of this SH3 domain) [5]: 52% | relative binding strength (% of the strongest interaction of this SH3 domain) [6]: 93%
B2: GST-tagged ARHGAP12 SH3 domain (domain or fragment, human, UniProt Q8IWW6 15-73, looked up)
chain: VYIEVEYDYEYEAKDRKIVIKQGERYILVKKTNDDWWQVKPDENSKAFYVPAQYVKEVT

relative binding strength (% of the strongest interaction of this SH3 domain) [7]: 13% | relative binding strength (% of the strongest interaction of this SH3 domain) [8]: 70% | relative binding strength (% of the strongest interaction of this SH3 domain) [9]: 100% | relative binding strength (% of the strongest interaction of this SH3 domain) [10]: 24%
B3: GST-tagged ARHGAP9 SH3 domain (domain or fragment, human, UniProt Q9BRR9 25-87, looked up)
chain: SQLCALYAFTYTGADGQQVSLAEGDRFLLLRKTNSDWWLARRLEAPSTSRPIFVPAAYMIEES

relative binding strength (% of the strongest interaction of this SH3 domain) [11]: 20% | relative binding strength (% of the strongest interaction of this SH3 domain) [12]: 28% | relative binding strength (% of the strongest interaction of this SH3 domain) [13]: 100% | relative binding strength (% of the strongest interaction of this SH3 domain) [14]: 10%
B4: GST-tagged SNX26 SH3 domain (domain or fragment, human, UniProt O14559 189-247, looked up)
chain: AAAHVIKRYTAQAPDELSFEVGDIVSVIDMPPTEDRSWWRGKRGFQVGFFPSECVELFT

relative binding strength (% of the strongest interaction of this SH3 domain) [15]: 27% | relative binding strength (% of the strongest interaction of this SH3 domain) [16]: 64% | relative binding strength (% of the strongest interaction of this SH3 domain) [17]: 6% | relative binding strength (% of the strongest interaction of this SH3 domain) [18]: 100% | relative binding strength (% of the strongest interaction of this SH3 domain) [19]: 91%
B5: GST-tagged ARHGAP26 SH3 domain (domain or fragment, human, UniProt Q9UNA1 759-814, looked up)
chain: RKAKALYACKAEHDSELSFTAGTVFDNVHPSQEPGWLEGTLNGKTGLIPENYVEFL

relative binding strength (% of the strongest interaction of this SH3 domain) [20]: 9% | relative binding strength (% of the strongest interaction of this SH3 domain) [21]: 55% | relative binding strength (% of the strongest interaction of this SH3 domain) [22]: 18% | relative binding strength (% of the strongest interaction of this SH3 domain) [23]: 100%
B6: GST-tagged SRGAP2 SH3 domain (domain or fragment)
chain: not shown
